This assay deals with T1, GST-Scd6 (S. cerevisiae, UniProt P45978 1-349).
T1 construct: Scd6, S. cerevisiae; source: E. coli BL21 (DE3), purified (glutathione-sepharose beads)
T1 sequence (looked up): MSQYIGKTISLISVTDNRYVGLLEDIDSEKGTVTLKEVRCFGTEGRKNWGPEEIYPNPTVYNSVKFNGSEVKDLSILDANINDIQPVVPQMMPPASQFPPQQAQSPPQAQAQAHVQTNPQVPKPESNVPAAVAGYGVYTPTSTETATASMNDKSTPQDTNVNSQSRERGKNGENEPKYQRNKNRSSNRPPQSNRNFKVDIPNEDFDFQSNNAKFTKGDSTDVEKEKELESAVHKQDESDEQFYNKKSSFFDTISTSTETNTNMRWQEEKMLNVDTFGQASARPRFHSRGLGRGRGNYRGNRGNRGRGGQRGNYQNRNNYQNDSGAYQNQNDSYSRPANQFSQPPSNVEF
The assay can be described thus: pull-down; His6-Hmt1 incubated with GST or GST-Scd6 immobilized on glutathione-sepharose beads for 3 h at 4°C, 5 washes with PBS; Coomassie staining and anti-His immunoblot. The note with it: both partners purified. For orientation: Immunoblotting shows a protein as a band on a membrane.

B1: His6-Hmt1 (natural protein, S. cerevisiae, UniProt P38074 1-348, looked up)
chain: MSKTAVKDSATEKTKLSESEQHYFNSYDHYGIHEEMLQDTVRTLSYRNAIIQNKDLFKDKIVLDVGCGTGILSMFAAKHGAKHVIGVDMSSIIEMAKELVELNGFSDKITLLRGKLEDVHLPFPKVDIIISEWMGYFLLYESMMDTVLYARDHYLVEGGLIFPDKCSIHLAGLEDSQYKDEKLNYWQDVYGFDYSPFVPLVLHEPIVDTVERNNVNTTSDKLIEFDLNTVKISDLAFKSNFKLTAKRQDMINGIVTWFDIVFPAPKGKRPVEFSTGPHAPYTHWKQTIFYFPDDLDAETGDTIEGELVCSPNEKNNRDLNIKISYKFESNGIDGNSRSRKNEGSYLMH
notes: Hmt1, S. cerevisiae; source: E. coli BL21 (DE3), purified (Ni-NTA agarose, imidazole elution, dialyzed)
For B1, the binding result is on record as “binds”.

Source of the values: article PMC5077174, “Analysis of the Physiological Activities of Scd6 through Its Interaction with Hmt1” (PLoS ONE, 2016).
